From patent US20120316071A1 (published 2012)

Legend:
[1] = molecular target: T1, rHuman IGF-1 sR, (IGF-1 sR), CF (R&D Systems Cat#391-GR) (human, UniProt P08069 31-932); test: MSD multispot ECL, antigen spotted, Fab 0.1 nM; blank spot 201
T1 construct: Bought soluble receptor; also called insulin-like growth factor-1 soluble receptor

[2] = molecular target: T2, rHuman HGF R/c-MET/Fc Chimera, CF (R&D Systems Cat#358-MT/CF) (human, UniProt P08581 25-932); test: as above
T2 construct: Bought reagent; also called HGF R/Fc; hepatocyte growth factor receptor

[3] = molecular target: T3, Recombinant Human DLL4 (R&D Systems Cat#1506-D4/CF) (human, UniProt Q9NR61 27-524); test: as above
T3 construct: Bought recombinant protein; also called rHuman DLL4; delta-like protein 4

[4] = molecular target: T4, rHuman CD44/Fc Chimera, CF (R&D Systems Cat#3660-CD) (human, UniProt P16070 21-220); test: as above
T4 construct: Bought reagent

[5] = molecular target: T5, rHuman Notch-1/Fc Chimera, CF (R&D Systems Cat#3647-TK) (human, UniProt P46531 19-526); test: as above
T5 construct: Bought reagent

[6] = molecular target: T6, rHuman ErbB2/Fc Chimera, CF (R&D Systems Cat#1129-ER) (human, UniProt P04626 23-652); test: as above
T6 construct: Bought reagent; also called human epidermal growth factor 2 receptor

[7] = molecular target: T7, rHuman EGF R/Fc Chimera, CF (R&D Systems Cat#344-ER) (human, UniProt P00533 25-645); test: as above
T7 construct: Bought reagent; also called epidermal growth factor receptor

[8] = molecular target: T8, rHuman Erythropoietin R/Fc Chimera, CF (R&D Systems Cat#963-ER) (human, UniProt P19235 25-250); test: as above
T8 construct: Bought reagent; also called EPO R/Fc; Epo R
T8 sequence (looked up): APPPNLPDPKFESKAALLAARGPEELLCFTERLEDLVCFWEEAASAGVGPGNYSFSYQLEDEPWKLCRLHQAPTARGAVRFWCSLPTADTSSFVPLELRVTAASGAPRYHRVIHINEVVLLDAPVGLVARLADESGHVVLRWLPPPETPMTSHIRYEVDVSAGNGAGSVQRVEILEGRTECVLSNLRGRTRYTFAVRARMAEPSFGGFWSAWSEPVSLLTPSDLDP

[9] = molecular target: T9, rHuman IGF-1 sR, (IGF-1 sR), CF (R&D Systems Cat#391-GR) (human, UniProt P08069 31-932); test: MSD multispot ECL, antigen spotted on plate, Fab 1410 nM; blank spot 709
T9 construct: Bought from R&D Systems and called a soluble receptor; also called insulin-like growth factor-1 soluble receptor

[10] = molecular target: T10, rHuman Erythropoietin R/Fc Chimera, CF (R&D Systems Cat#963-ER) (human, UniProt P19235 25-250); test: as above
T10 construct: Bought from R&D Systems; also called EPO R/Fc; Epo R/Fc chimera; not shown: Fc of the bought chimera
T10 sequence (looked up): T8 sequence (looked up)

[11] = molecular target: T11, rHuman CD44/Fc Chimera, CF (R&D Systems Cat#3660-CD) (human, UniProt P16070 21-220); test: as above
T11 construct: Bought from R&D Systems; not shown: Fc of the bought chimera

[12] = molecular target: T12, rHuman HGF R/c-MET/Fc Chimera, CF (R&D Systems Cat#358-MT/CF) (human, UniProt P08581 25-932); test: as above
T12 construct: Bought from R&D Systems; also called HGF R/Fc; hepatocyte growth factor receptor (HGF R/c-Met); not shown: Fc of the bought chimera

[13] = molecular target: T13, rHuman ErbB2/Fc Chimera, CF (R&D Systems Cat#1129-ER) (human, UniProt P04626 23-652); test: as above
T13 construct: Bought from R&D Systems; also called human epidermal growth factor 2 receptor (ErbB2); not shown: Fc of the bought chimera

[14] = molecular target: T14, rHuman EGF R/Fc Chimera, CF (R&D Systems Cat#344-ER) (human, UniProt P00533 25-645); test: as above
T14 construct: Bought from R&D Systems; also called epidermal growth factor receptor (EGF R); not shown: Fc of the bought chimera

[15] = molecular target: T15, rHuman Notch-1/Fc Chimera, CF (R&D Systems Cat#3647-TK) (human, UniProt P46531 19-526); test: as above
T15 construct: Bought from R&D Systems; not shown: Fc of the bought chimera

[16] = molecular target: T16, Recombinant Human DLL4 (R&D Systems Cat#1506-D4/CF) (human, UniProt Q9NR61 27-524); test: as above
T16 construct: Bought from R&D Systems; also called rHuman DLL4; delta-like protein 4

[17] = molecular target: T17, rHuman Notch-1/Fc Chimera, CF (R&D Systems Cat#3647-TK) (human, UniProt P46531 19-526); test: Multispot ECL (MSD) titration; antigen spotted on plate; Fab 24.5 nM; blank spot 149
T17 construct: Bought Fc chimera; Fc part of the bought chimera not given

[18] = molecular target: T18, rHuman IGF-1 sR (IGF-1 sR), CF (R&D Systems Cat#391-GR) (human, UniProt P08069 31-932); test: as above
T18 construct: Bought soluble receptor; also called insulin-like growth factor-1 soluble receptor

B1: Fab VH1-46_IGHD6-6*01_IGHJ1*01 & L6_IGKJ1*01 (Fab, V domains shown)
VH: QVQLVQSGAEVKKPGASVKVSCKASGYTFTSYYMHWVRQAPGQGLEWMGIINPSGGSTSYAQKFQGRVTMTRDTSTSTVYMELSSLRSEDTAVYYCAREEYSSSSAEYFQHWGQGTLVTVSS
VL: not shown
notes: Only variable domains are tied to the molecule; Tested as a Fab made in E. coli: heavy chain from Plasmid A (CH1 constant region, His6 and Flag tags), kappa light chain from Plasmid C (kappa CL); also called parent Hit Fab against DLL4; VH1-46_IGHD6-6*01_IGHJ1*01 & L6_IGKJ1*01 (parental)
Which results are given for B1?
ECL signal [1]: 241 ECL signal; ECL signal [2]: 286 ECL signal; ECL signal [3]: 317 ECL signal; ECL signal [4]: 323 ECL signal; ECL signal [5]: 378 ECL signal; ECL signal [6]: 306 ECL signal; ECL signal [7]: 311 ECL signal; ECL signal [8]: 373 ECL signal

B2: Fab VH1-46_IGHD3-10*01_IGHJ4*01 & B3_IGKJ1*01 (Fab, V domains shown)
VH: QVQLVQSGAEVKKPGASVKVSCKASGYTFTSYYMHWVRQAPGQGLEWMGIINPSGGSTSYAQKFQGRVTMTRDTSTSTVYMELSSLRSEDTAVYYCAREYYYGSGSYYNDYFDYWGQGTLVTVSS
VL: not shown
notes: Tested as a Fab made in E. coli; VH was cloned into Plasmid A (CH1 constant region, His6 and Flag tags); The kappa VL was cloned into Plasmid C (kappa CL)
Which results are given for B2?
ECL signal [9]: 426; ECL signal [10]: 4310; ECL signal [11]: 885; ECL signal [12]: 903; ECL signal [13]: 932; ECL signal [14]: 1070; ECL signal [15]: 1030; ECL signal [16]: 1260

B3: Fab VH1-46_IGHD3-10*01_IGHJ4*01 & O1_IGKJ1*01 (Fab, V domains shown)
VH: B2 VH
VL: DIVMTQTPLSLPVTPGEPASISCRSSQSLLDSDDGNTYLDWYLQKPGQSPQLLIYTLSYRASGVPDRFSGSGSGTDFTLKISRVEAEDVGVYYCMQRIEFPSWTFGQGTKVEIKR
notes: Germline library Fab expressed in E. coli; VH was cloned into Plasmid A (CH1 constant region, His6 and Flag tags); The kappa VL was cloned into Plasmid C (kappa CL)
With B3 as the binder, how does the ECL signal [17] read?
Its ECL signal is 434.

What about the ECL signal [18] of the same binder?
Its ECL signal is 239.
